Patent publication US20200399369A1 (Sanofi, published 2020)

T1: Human CD3 (human)
T1 chain: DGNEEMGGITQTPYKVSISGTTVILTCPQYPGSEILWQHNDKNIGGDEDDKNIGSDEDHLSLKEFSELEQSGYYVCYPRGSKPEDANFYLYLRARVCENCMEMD

B1: CD38hyb5739/CD28sup x CD3mid_ENLQ DKTHT IgG4 FALA (other)
light 1: DIVMTQTPLSLSVTPGQPASISCKSSQSLVHENLQTYLSWYLQKPGQSPQSLIYKVSNRFSGVPDRFSGSGSGTDFTLKISRVEAEDVGVYYCGQGTQYPFTFGSGTKVEIKDKTHTDIQMTQSPSSLSASVGDRVTITCQASQNIYVWLNWYQQKPGKAPKLLIYKASNLHTGVPSRFSGSGSGTDFTLTISSLQPEDIATYYCQQGQTYPYTFGQGTKLEIKDKTHTRTVAAPSVFIFPPSDEQLKSGTASVVCLLNNFYPREAKVQWKVDNALQSGNSQESVTEQDSKDSTYSLSSTLTLSKADYEKHKVYACEVTHQGLSSPVTKSFNRGEC
heavy 1: QVQLVQSGAEVVKPGASVKVSCKASGYTFTSYYIHWVRQAPGQGLEWIGSIYPGNVNTNYAQKFQGRATLTVDTSISTAYMELSRLRSDDTAVYYCTRSHYGLDWNFDVWGKGTTVTVSSDKTHTQVQLVESGGGVVQPGRSLRLSCAASGFTFTKAWMHWVRQAPGKQLEWVAQIKDKSNSYATYYADSVKGRFTISRDDSKNTLYLQMNSLRAEDTAVYYCRGVYYALSPFDYWGQGTLVTVSSDKTHTASTKGPSVFPLAPCSRSTSESTAALGCLVKDYFPEPVTVSWNSGALTSGVHTFPAVLQSSGLYSLSSVVTVPSSSLGTKTYTCNVDHKPSNTKVDKRVESKYGPPCPPCPAPEAAGGPSVFLFPPKPKDTLMISRTPEVTCVVVDVSQEDPEVQFNWYVDGVEVHNAKTKPREEQFNSTYRVVSVLTVLHQDWLNGKEYKCKVSNKGLPSSIEKTISKAKGQPREPQVCTLPPSQEEMTKNQVSLSCAVKGFYPSDIAVEWESNGQPENNYKTTPPVLDSDGSFFLVSKLTVDKSRWQEGNVFSCSVMHEALHNHYTQKSLSLSLG
heavy 2: QVQLQQSGPELVRPGTSVKVSCKASGYAFTTYLVEWIKQRPGQGLEWIGVINPGSGSTNYNEKFKGKATLTVDRSSTTAYMHLSGLTSDDSAVYFCARYAYGYWGQGTTLTVSSASTKGPSVFPLAPCSRSTSESTAALGCLVKDYFPEPVTVSWNSGALTSGVHTFPAVLQSSGLYSLSSVVTVPSSSLGTKTYTCNVDHKPSNTKVDKRVESKYGPPCPPCPAPEAAGGPSVFLFPPKPKDTLMISRTPEVTCVVVDVSQEDPEVQFNWYVDGVEVHNAKTKPREEQFNSTYRVVSVLTVLHQDWLNGKEYKCKVSNKGLPSSIEKTISKAKGQPREPQVYTLPPCQEEMTKNQVSLWCLVKGFYPSDIAVEWESNGQPENNYKTTPPVLDSDGSFFLYSKLTVDKSRWQEGNVFSCSVMHEALHNHYTQKSLSLSLG
light 2: DIVMTQSQKFMSASVGDRVSITCKASQNVGTAVAWYQQQPGHSPKQLIYSASNRYTGVPDRFTGSGAGTDFTLTISNIQSEDLADYFCQQYSTYPFTFGSGTKLEIKRTVAAPSVFIFPPSDEQLKSGTASVVCLLNNFYPREAKVQWKVDNALQSGNSQESVTEQDSKDSTYSLSSTLTLSKADYEKHKVYACEVTHQGLSSPVTKSFNRGEC
notes: Trispecific antibody; also called BP # 6′
B2: AntiCD38_hyb_6284 (antibody, V domains shown)
VH: QVQLLQSGAELVRPGVSVKISCTGSGYSFTNYAVHWVKQSHVKSLEWIGVISPYYGDTTYNQKFTGKATMTVDKSSSTAYMELARLTSEDSAIYFCARRFEGFYYSMDYWGQGTSVTVSS
VL: DVVMIQTPLSLPVSLGDQASISCRPSQSLVHSNGNTYLNWYLQRPGQSPKLLIYKVSKRFSGVPDRFSGSGSGTDFTLKISRVEAEDLGVYLCSQSTHVPLTFGSGTQLEIK
B3: AntiCD38_hyb_5739 (antibody, V domains shown)
VH: QVQLQQSGPELVRPGTSVKVSCKASGYAFTTYLVEWIKQRPGQGLEWIGVINPGSGSTNYNEKFKGKATLTVDRSSTTAYMHLSGLTSDDSAVYFCARYAYGYWGQGTTLTVSS
VL: DIVMTQSQKFMSASVGDRVSITCKASQNVGTAVAWYQQQPGHSPKQLIYSASNRYTGVPDRFTGSGAGTDFTLTISNIQSEDLADYFCQQYSTYPFTFGSGTKLEIK

What was measured:
Human CD38-His = biological target: T2, Human CD38-His (human, UniProt P28907 43-300, limits assumed); assay: SPR (BIACORE 3000), capture format, 1:1 Langmuir model
T2 construct: Bought antigen; also called human CD38 (SPR antigen); not shown: His tag

cynomolgus monkey CD38 [1] = biological target: T3, cynomolgus monkey CD38 (cynomolgus monkey, UniProt Q5VAN0 44-301, limits assumed); assay: ELISA, antigen-coated plate
T3 construct: also called Cyno CD38; cynoCD38
Method: (§1) Binding affinities to each target antigen by the CD38/CD28×CD3 T cell engagers were measured by ELISA. Briefly, each antigen was used to coat the 96-well Immuno Plate (Thermo Fisher Scientific) overnight at 4° C. using 200 ng/well in PBS (pH7.4) of each antigen. The coated plate was blocked using 5% skim milk+2% BSA in PBS for one hour at RT, followed by washing with PBS+0.25% Tween 20 three times (Aqua Max 400, Molecular Devices). Serial dilution of antibodies (trispecific and control Abs) were prepared and added onto the ELISA plates (100 μl/well in duplicate), incubated at room temperature (RT) for one hour, followed by washing 5 times with PBS+0.25% Tween 20. […] The reaction was terminated by adding 50 μl 1M H₂SO₄, and OD450 was measured using SpectraMax M5 (Molecular Devices) and analyzed using SoftMax Pro6.3 software (Molecular Devices). The final data was transferred to GraphPad Prism software (GraphPad Software, CA, USA), and plotted. EC50 was calculated using the same software.
(§2) The binding affinities of selected CD38/CD28sup×CD3mid_ENLQ DKTHT IgG4 FALA trispecific antibodies with alternative anti-CD38 binding domains for human CD3, human CD28, human CD38 and cynomolgus monkey CD38 were then determined by ELISA as described above.

human CD38 [2] = biological target: T4, human CD38 (human, UniProt P28907 43-300, limits assumed); assay: ELISA, antigen-coated plate
T4 construct: also called hCD38; huCD38
Method: as §1, §2

Human CD3 = biological target: T1, Human CD3; assay: ELISA, antigen-coated plate
Method: as §1, §2

Human CD28 = biological target: T5, Human CD28 (human, UniProt P10747 19-152, limits assumed); assay: ELISA, antigen-coated plate
T5 construct: also called hCD28
Method: as §1, §2

[3] = biological target: T6, human CD38 on tumor cell lines NCI-H929 (CD38+/CD28+) and OCI-LY19 (CD38+/CD28-) (human, UniProt P28907 1-300); assay: cell-based or functional assay
[4] = biological target: T6, human CD38 on tumor cell lines NCI-H929 …; assay: cell-based or functional assay; remark: listed apart in the source
cynomolgus monkey CD38 [5] = biological target: T3, cynomolgus monkey CD38; assay: ELISA
human CD38 [6] = biological target: T4, human CD38; assay: ELISA
cynomolgus monkey CD38 [7] = biological target: T3, cynomolgus monkey CD38; assay: FACS
human CD38 [8] = biological target: T4, human CD38; assay: FACS

| Binder | Kd (Human CD38-His) | koff (Human CD38-His) | kon (Human CD38-His) | EC50 (cynomolgus monkey CD38 [1]) | EC50 (human CD38 [2]) | EC50 (Human CD3) | EC50 (Human CD28) | EC50 of in vitro killing of NCI-H929 (CD38+/CD28+) cells, With Dara [3] | EC50 of in vitro killing of NCI-H929 (CD38+/CD28+) cells, With human IgG1 [3] | EC50 of in vitro killing of OCI-LY19 (CD38+/CD28-) cells, With Dara [4] | EC50 of in vitro killing of OCI-LY19 (CD38+/CD28-) cells, With human IgG1 [4] | EC50 (cynomolgus monkey CD38 [5]) | EC50 (human CD38 [6]) | EC50 (cynomolgus monkey CD38 [7]) | EC50 (human CD38 [8]) |
| --- | --- | --- | --- | --- | --- | --- | --- | --- | --- | --- | --- | --- | --- | --- | --- |
| B1 | 5.57 nM | 0.00546 s⁻¹ | 980000 M⁻¹ s⁻¹ | 1.63 nM | 0.984 nM | 10.8 nM | 0.825 nM | 0.00911 nM | 0.00274 nM | 0.219 nM | 0.061 nM | – | – | – | – |
| B2 | – | – | – | – | – | – | – | – | – | – | – | 0.13 nM | 0.11 nM | 0.7 nM | 0.4 nM |
| B3 | – | – | – | – | – | – | – | – | – | – | – | 0.09 nM | 0.12 nM | 0.5 nM | 0.3 nM |
